# Test results published in US20240400677A1 (ELECTRA THERAPEUTICS, published 2024).
# T1: cynomolgus monkey SIRPα on CHO cells (cynomolgus monkey, UniProt A0A2K5VYQ9 31-507)
# T1 construct: whole, on cells; also called Cyno SIRPα CHO
# T1 sequence: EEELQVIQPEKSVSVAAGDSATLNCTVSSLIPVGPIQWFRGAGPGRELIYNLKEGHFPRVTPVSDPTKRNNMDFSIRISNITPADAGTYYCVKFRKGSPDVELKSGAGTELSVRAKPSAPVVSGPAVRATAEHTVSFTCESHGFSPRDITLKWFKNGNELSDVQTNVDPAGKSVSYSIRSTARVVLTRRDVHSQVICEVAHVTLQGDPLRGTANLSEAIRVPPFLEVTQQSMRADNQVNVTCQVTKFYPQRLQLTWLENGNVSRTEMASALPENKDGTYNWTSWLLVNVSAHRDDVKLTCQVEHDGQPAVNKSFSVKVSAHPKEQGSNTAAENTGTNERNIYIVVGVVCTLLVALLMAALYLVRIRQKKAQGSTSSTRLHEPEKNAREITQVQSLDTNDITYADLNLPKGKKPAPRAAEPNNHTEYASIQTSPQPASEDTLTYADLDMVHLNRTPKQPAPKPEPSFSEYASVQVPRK
# T2: Cynomolgus Monkey SIRPγ (plate-coated extracellular domain)
# T2 construct: also called Cyno SIRPγ
# T2 extracellular domain: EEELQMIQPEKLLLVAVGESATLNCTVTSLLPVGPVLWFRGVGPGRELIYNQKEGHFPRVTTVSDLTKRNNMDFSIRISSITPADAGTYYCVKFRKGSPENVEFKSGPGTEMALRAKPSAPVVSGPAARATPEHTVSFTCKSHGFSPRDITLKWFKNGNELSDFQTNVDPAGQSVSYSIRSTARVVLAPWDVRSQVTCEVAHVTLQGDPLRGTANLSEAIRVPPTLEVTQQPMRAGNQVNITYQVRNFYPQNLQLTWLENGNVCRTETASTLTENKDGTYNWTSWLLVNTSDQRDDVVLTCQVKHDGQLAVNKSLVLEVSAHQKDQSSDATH
# T3: cynomolgus monkey SIRPγ-His monomer protein (cynomolgus monkey, UniProt Q9P1W8 29-359 (human entry), limits assumed)
# T3 construct: also called Cyno SIRPγ; Cyno SIRPγ-His
# T3 chain: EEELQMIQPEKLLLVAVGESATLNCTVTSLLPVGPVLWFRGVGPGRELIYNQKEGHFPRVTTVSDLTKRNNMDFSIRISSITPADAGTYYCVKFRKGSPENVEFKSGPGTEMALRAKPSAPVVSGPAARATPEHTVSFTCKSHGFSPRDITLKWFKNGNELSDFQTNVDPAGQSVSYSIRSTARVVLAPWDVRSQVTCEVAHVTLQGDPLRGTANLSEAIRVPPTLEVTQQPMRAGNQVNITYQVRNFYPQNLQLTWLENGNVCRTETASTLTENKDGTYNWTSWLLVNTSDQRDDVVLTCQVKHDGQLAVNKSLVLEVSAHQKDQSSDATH
# T4: cynomolgus monkey SIRPγ on CHO cells (cynomolgus monkey, UniProt Q9P1W8 29-386 (human entry))
# T4 construct: also called Cyno SIRPγ CHO
# T4 chain: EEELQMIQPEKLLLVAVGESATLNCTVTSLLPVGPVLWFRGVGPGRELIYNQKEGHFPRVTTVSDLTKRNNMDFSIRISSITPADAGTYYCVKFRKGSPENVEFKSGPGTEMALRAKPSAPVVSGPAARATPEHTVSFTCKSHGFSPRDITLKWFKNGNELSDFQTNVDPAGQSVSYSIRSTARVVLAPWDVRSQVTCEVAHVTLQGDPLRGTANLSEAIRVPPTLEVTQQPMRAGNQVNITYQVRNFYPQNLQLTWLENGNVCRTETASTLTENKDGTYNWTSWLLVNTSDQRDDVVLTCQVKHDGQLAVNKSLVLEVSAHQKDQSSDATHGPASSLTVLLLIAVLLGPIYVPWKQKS
# Experiments:
# [1] = biological target: T5, human SIRPβ1 on CHO cells (co-transfected with DAP12) (human, UniProt O00241 30-398); assay: flow cytometry, CHO transfectants, anti-human IgG
# T5 construct: whole, on cells; co-transfected with DAP12; also called Human SIRPβ1 CHO
# Experimental: (§1) Selected antibodies were tested for binding to stably transfected human SIRPγ, SIRPαV1, or SIRPβ1 (co-transfected with DAP12) Chinese hamster ovary (CHO) cells via flow cytometry. A titration of select antibodies was added to the cells and detected using a fluorescently labelled secondary anti-rat IgG antibody or anti-human IgG antibody. Graphs depict the median fluorescence intensity (MFI) at each concentration. FIGS. 5A and 5G show the binding curves of select antibodies to human SIRPγ, cynomolgus monkey SIRPγ, human SIRPα, cynomolgus monkey SIRPα, human SIRPβ1, or cynomolgus monkey SIRPβl-expressing CHO cells detected using an anti-rat IgG antibody. FIGS. 5B-5F and 5H-5L show the binding curves of select antibodies to human SIRPγ, cynomolgus monkey SIRPγ, human SIRPα, cynomolgus monkey SIRPα, human SIRPβ1, or cynomolgus monkey SIRPβ1-expressing CHO cells detected using an anti-human IgG antibody. […] For select antibodies, each myc-tagged SIRPγ scFv antibody as crude PPE was incubated with each of the SIRP-expressing cell lines stated above along with the parental CHO-K1 cell line. […] Fold change value <2.0 is considered a non-binder.
# [2] = biological target: T1, cynomolgus monkey SIRPα on CHO cells; assay: flow cytometry, CHO transfectants, anti-human IgG
# Experimental: as §1
# [3] = biological target: T2, Cynomolgus Monkey SIRPγ (plate-coated …); assay: ELISA, coated SIRP ECD (2 µg/mL), anti-human IgG, luminescence
# Experimental: (§2) Selected hybridoma supernatants of Example 1 were tested for binding to human SIRPγ, cynomolgus monkey SIRPγ, human SIRPα V1, cynomolgus monkey SIRPα, human SIRPβ1, and cynomolgus monkey SIRPβ1 by enzyme-linked immunosorbent assay (ELISA). Briefly, 2 μg/mL of the extracellular domain of SIRP protein was coated onto high protein-binding plates and blocked. Undiluted supernatants were added to coated plates. The antibodies were detected by an anti-rat antibody and a chemiluminescent substrate. […] The data depict the relative luminescence units read by a plate-reader capable of detecting chemiluminescence.
# (§3) FIGS. 2A-2G show binding curves of SIRPγ antibodies and human Fc isotype controls to human SIRPγ, cynomolgus monkey SIRPγ, human SIRPα V1, human SIRPα V2, and human SIRPβ1 by ELISA. […] Isotype control 2 was an unrelated human IgG1 antibody with irrelevant CDRs with no modifications in the Fc region. DNA was transiently transfected into Expi293F cells for 5 days. Antibodies were purified by Protein A from cell supernatants and analyzed in a titration via ELISA as previously described in FIG. 1 using an anti-human IgG antibody as the detection antibody.
# [4] = biological target: T6, extracellular binding domain of human SIRPγ (plate-coated) (human, UniProt Q9P1W8 29-360); assay: as above
# T6 construct: also called hSIRPγ
# Experimental: as §2, §3
# [5] = biological target: T3, cynomolgus monkey SIRPγ-His monomer …; assay: BLI Octet, captured scFv PPE, cyno SIRP
# Experimental: Unique binders were further tested for binding to human SIRPαV1, human SIRPαV2, and human SIRPβ1. Briefly, biotinylated anti-V5 was immobilized onto streptavidin biosensors. Each V5-tagged SIRPγ scFv antibody as crude PPE was captured by the anti-V5 antibody. SIRP-His monomer protein at 500 nM was exposed to the biosensor for binding to SIRP scFv. The biosensors were then exposed to wash buffer to measure off-rate kinetics. The resulting association and dissociation kinetics (kdis) was analyzed. […] Similarly, cross-reactivity to cynomolgus monkey SIRPγ, cynomolgus monkey SIRPα, and cynomolgus monkey SIRPβ1 were tested.
# [6] = biological target: T7, human SIRPγ-His monomer protein (human, UniProt Q9P1W8 29-360); assay: BLI Octet, V5-scFv PPE captured, SIRP-His 500 nM
# T7 construct: also called hSIRPγ
# [7] = biological target: T5, human SIRPβ1 on CHO cells …; assay: flow cytometry
# [8] = biological target: T4, cynomolgus monkey SIRPγ on CHO cells; assay: flow cytometry, myc-scFv PPE
# Experimental: as §1
# [9] = biological target: T8, human SIRPγ on stably transfected CHO cells (human, UniProt Q9P1W8 29-387); assay: flow cytometry, myc-scFv PPE
# T8 construct: also called Human SIRPγ CHO
# Experimental: as §1
# T5 sequence (O00241 30-398): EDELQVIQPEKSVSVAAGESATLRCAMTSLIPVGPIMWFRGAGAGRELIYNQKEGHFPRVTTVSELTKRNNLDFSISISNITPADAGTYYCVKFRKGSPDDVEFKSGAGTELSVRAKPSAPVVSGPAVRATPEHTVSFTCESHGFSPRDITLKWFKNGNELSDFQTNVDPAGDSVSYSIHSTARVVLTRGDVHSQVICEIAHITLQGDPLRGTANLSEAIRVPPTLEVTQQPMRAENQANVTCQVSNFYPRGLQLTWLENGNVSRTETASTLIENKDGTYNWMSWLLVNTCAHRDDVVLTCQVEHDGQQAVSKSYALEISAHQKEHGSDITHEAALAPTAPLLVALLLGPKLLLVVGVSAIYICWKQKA
# T7 sequence (Q9P1W8 29-360 limits assumed): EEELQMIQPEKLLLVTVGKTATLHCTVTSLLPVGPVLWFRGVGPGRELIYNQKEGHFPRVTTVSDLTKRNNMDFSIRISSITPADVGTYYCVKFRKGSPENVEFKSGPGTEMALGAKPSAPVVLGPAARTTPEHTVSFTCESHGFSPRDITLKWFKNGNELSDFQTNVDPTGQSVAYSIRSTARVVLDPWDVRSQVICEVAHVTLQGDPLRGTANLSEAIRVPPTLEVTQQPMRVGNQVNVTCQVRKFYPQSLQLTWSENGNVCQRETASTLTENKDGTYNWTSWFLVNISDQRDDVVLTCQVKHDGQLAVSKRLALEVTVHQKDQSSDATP
# T6 sequence (Q9P1W8 29-360 limits assumed): as above
# T8 sequence (Q9P1W8 29-387 limits assumed): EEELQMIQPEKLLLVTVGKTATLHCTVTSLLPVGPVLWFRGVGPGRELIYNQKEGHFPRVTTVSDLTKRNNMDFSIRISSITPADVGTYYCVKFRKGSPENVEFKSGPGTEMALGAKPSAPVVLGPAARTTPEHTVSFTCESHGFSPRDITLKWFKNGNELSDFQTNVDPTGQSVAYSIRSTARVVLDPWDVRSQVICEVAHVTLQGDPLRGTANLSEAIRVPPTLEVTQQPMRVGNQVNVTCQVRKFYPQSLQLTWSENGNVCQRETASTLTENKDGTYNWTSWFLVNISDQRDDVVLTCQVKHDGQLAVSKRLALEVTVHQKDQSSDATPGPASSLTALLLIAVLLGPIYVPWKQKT
Binder,binding result [1],binding result [2],EC50 (read off the curve) [3],EC50 (read off the curve) [4],binding result [5],kdis [6],binding result [7],MFI fold change over parental CHO [8],MFI fold change over parental CHO [9]
"Antibody 70 (antibody, V domains shown) VH: QVQLVQSGAEVKKPGASVKVSCKASGYTFSNYYMHWVRQAPGQGLEWMGWMNPNSGNTGYAQKFQGRVTMTRDTSTSTVYMELSSLRSEDTAVYYCARASMYSSSGFDYWGQGTLVTVSS VL: DIVMTQSPLSLPVTPGEPASISCRSSQSLLHSNGYNYLDWYLQKPGQSPQLLIYLASTRAPGVPDRFSGSGSGTDFTLKISRVEAEDVGVYYCMQGSHWPPSFGQGTRLEIK",no binding (tested: about 20 µg/mL),no binding (tested: about 20 µg/mL),~0.05 µg/mL,~0.03 µg/mL,–,–,–,–,–
"Antibody 63 (antibody, V domains shown) VH: QVQLVQSGAEVKKPGASVKVSCKASGYTFTGYYMHWVRQAPGQGLEWMGIINPSGGSTNYAQKFQGRVTMTRDTSTSTVYMELSSLRSEDTAVYYCARGPIGYGMDVWGQGTLVTVSS VL: DIQMTQSPSSLSASVGDRVTITCRASQGIGNDLGWYQQKPGKAPKLLIYAASNLETGVPSRFSGSGSGTDFTLTISSLQPEDFATYYCLQHHSYPFTFGQGTKLEIK",no binding (tested: about 20 µg/mL),no binding (tested: about 20 µg/mL),~1 µg/mL,~0.8 µg/mL,–,–,–,–,–
"Antibody 12 (scFv, V domains shown, scFv in crude PPE, V5/myc-tagged) VH: QVQLVQSGAEVKKPGASVKVSCKASGGTFGSYGINWVRQAPGQGLEWMGWISAYNGNTNYAQKLQGRVTMTRDTSTSTVYMELSSLRSEDTAVYYCARDGIDYGGNSGYDYWGQGTLVTVSS VL: DIQMTQSPSSLSASVGDRVTITCRASQNIRNYLNWYQQKPGKAPKLLIYAASSLQGGVPSRFSGSGSGTDFTLTISSLQPEDFATYYCQQSYNGPYTFGQGTKVEIK",–,–,–,–,binds,0.001 to 0.01 s⁻¹,no binding (tested: fold change <2.0),5.94 fold,10.7 fold
"Antibody 46 (scFv, V domains shown, scFv in crude PPE, V5/myc-tagged) VH: QVQLVQSGAEVKKPGASVKVSCKASGYTFSSYAISWVRQAPGQGLEWMGWMDPNSGNTGYAQKFQGRVTMTRDTSTSTVYMELSSLRSEDTAVYYCARESSYYYDSSGYYPGWYFDLWGRGTLVTVSS VL: DIQMTQSPSSLSASVGDRVTITCQASQDISNYLNWYQQKPGKAPKLLIYAASTLQTGVPSRFSGSGSGTDFTLTISSLQPEDFATYYCQQSYSTPWTFGPGTKVDIK",–,–,–,–,binds,> 0.01 s⁻¹,no binding (tested: fold change <2.0),16 fold,13.1 fold
"Antibody 11 (scFv, V domains shown, scFv in crude PPE, V5/myc-tagged) VH: QVQLVQSGAEVKKPGASVKVSCKASGYTFTSYDINWVRQAPGQGLEWMGWMNPNSGNTGYAQKFQGRVTMTRDTSTSTVYMELSSLRSEDTAVYYCAKGAVAGTYYYYGMDVWGQGTTVTVSS VL: DIQMTQSPSSLSASVGDRVTITCRASQTINNYLNWYQQKPGKAPKLLIYDASNLETGVPSRFSGSGSGTDFTLTISSLQPEDFATYYCQQANSFPLTFGQGTKVEIK",–,–,–,–,binds,0.001 to 0.01 s⁻¹,no binding (tested: fold change <2.0),6.18 fold,3.98 fold

# Further lines, results first:
binding result [1],binding result [2],EC50 (read off the curve) [3],EC50 (read off the curve) [4],binding result [5],kdis [6],binding result [7],MFI fold change over parental CHO [8],MFI fold change over parental CHO [9],Binder
no binding (tested: about 20 µg/mL),no binding (tested: about 20 µg/mL),~0.3 µg/mL,~0.08 µg/mL,–,–,–,–,–,"Antibody 59 (antibody, V domains shown) VH: QVQLVQSGAEVKKPGASVKVSCKASGYTFTSYDINWVRQAPGQGLEWMGWMNPNSGNTGYAQKFQGRVTMTRDTSTSTVYMELSSLRSEDTAVYYCARESYAYCSSTSCYDAFDIWGQGTMVTVSS VL: not shown"
no binding (tested: about 20 µg/mL),no binding (tested: about 20 µg/mL),~1 µg/mL,~0.5 µg/mL,–,–,–,–,–,"Antibody 68 (antibody, V domains shown) VH: QVQLVQSGAEVKKPGASVKVSCKASGYTFTSYYMYWVRQAPGQGLEWMGWINPNSGNTGYAQKFQGRVTMTRDTSTSTVYMELSSLRSEDTAVYYCAKDRRRGVGLAAAGTSAFDIWGQGTMVTVSS VL: DIQMTQSPSSLSASVGDRVTITCRASQSISNWLAWYQQKPGKAPKLLIYAASSLQSGVPSRFSGSGSGTDFTLTISSLQPEDFATYYCQQSYSTPYTFGQGTKLEIK"
no binding (tested: about 20 µg/mL),no binding (tested: about 20 µg/mL),~0.3 µg/mL,~0.2 µg/mL,–,–,–,–,–,"Antibody 72 (antibody, V domains shown) VH: QVQLVQSGAEVKKPGASVKVSCKASGYTFTDNYLHWVRQAPGQGLEWMGIIETSGGSTDYAQKFQGRVTMTRDTSTSTVYMELSSLRSEDTAVYYCARSFGGYSYDDAFDIWGQGTTVTVSS VL: DIQMTQSPSSLSASVGDRVTITCQASQGISNYLNWYQQKPGKAPKLLIYAASSLQSGVPSRFSGSGSGTDFTLTISSLQPEDFATYYCQQSYSSPYTFGQGTKVEIK"
